The source of these data is US20010011078A1 (University of Texas, published 2001).

The subject of data set [1] is T1, DFF45 fusion protein with a six-histidine tag at the NH2-terminus.
T1 sequence: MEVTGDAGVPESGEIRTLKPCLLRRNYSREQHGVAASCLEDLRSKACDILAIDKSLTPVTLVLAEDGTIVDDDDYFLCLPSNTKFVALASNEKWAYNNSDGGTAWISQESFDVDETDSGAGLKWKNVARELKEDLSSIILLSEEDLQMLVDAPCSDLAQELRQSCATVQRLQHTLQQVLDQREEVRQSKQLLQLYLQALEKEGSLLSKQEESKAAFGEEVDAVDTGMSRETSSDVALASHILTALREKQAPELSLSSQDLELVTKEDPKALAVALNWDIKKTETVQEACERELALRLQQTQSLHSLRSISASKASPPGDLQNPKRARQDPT

Data set [2] concerns poly(ADP-ribose) polymerase (PARP).
Data set [3] has as its system T2, DFF45 (45-kDa subunit of DNA fragmentation factor), native human protein.
T2 sequence: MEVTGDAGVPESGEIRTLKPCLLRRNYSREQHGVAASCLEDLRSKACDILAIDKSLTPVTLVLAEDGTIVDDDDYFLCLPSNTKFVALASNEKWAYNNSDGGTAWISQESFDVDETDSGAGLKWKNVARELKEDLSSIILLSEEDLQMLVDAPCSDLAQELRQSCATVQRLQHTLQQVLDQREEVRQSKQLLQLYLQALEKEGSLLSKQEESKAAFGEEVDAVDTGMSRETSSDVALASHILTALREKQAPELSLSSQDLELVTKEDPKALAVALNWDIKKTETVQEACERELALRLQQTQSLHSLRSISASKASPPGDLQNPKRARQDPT

Data set [4] has as its system T3, DFF40 (40-kDa subunit of DNA fragmentation factor), native human protein.
T3 sequence: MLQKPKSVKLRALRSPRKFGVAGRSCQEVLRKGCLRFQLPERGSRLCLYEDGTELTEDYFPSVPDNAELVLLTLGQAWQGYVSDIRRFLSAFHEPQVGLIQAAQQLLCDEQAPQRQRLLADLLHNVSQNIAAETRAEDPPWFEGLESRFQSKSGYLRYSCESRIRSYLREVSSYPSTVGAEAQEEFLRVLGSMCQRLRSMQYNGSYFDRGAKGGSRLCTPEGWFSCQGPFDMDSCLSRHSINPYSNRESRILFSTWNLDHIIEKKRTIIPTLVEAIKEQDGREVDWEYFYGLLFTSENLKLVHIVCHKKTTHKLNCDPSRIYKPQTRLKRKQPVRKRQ

Data set [5] deals with recombinant DFF40 tagged with six histidine at its C-terminus (human) (UniProt O76075). Put plainly: cell-based or functional assay.
The target in data set [6] is T4, DFF40 (40-kDa subunit of DNA fragmentation factor), native human protein (human, UniProt O76075 1-338).
T4 construct: Native protein purified from HeLa S-100 as part of the DFF heterodimer; also called 40-kDa polypeptide
T4 sequence: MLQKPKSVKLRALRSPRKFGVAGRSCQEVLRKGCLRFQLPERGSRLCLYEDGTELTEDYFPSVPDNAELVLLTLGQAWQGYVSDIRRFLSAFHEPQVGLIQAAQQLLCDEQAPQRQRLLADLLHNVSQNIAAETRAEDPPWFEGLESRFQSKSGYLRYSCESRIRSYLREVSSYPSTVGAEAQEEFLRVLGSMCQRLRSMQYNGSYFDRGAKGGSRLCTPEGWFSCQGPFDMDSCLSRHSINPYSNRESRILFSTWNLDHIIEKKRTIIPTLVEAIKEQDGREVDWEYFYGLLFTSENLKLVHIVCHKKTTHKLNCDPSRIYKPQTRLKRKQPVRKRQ
Put plainly: co-elution from the Mono Q column (last purification step), SDS-PAGE with Coomassie stain. The method, then: Ammonium sulfate (1 M) was added directly to the SP-Sepharose 0.5 M eluate. After rotating at 4° C. for 1 hr, the sample were centrifuged at 15,000 rpm for 30 min in a Sovall IA-600 rotor. The supernate was directly loaded onto a 100 ml phenyl Sepharose column equilibrated with buffer A containing 1 M ammonium sulfate and 0.5 M NaCl. The column was washed with three bed volumes of buffer A containing 1 M ammonium sulfate and 0.5 M NaCl and the bound material was eluted with two bed volumes of buffer A. […] was added to the phenyl Sepharose eluate to 50% saturation. After stirring at 4° C. for 5 hr, the sample was centrifuged at 15,000 rpm for 15 min in a Sovall JA-600 rotor. The pellet was resuspended in buffer A and loaded onto a Superalex-200 16/60 gel filtration column (Pharmacia) equilibrated with buffer A and eluted with the same buffer. Fractions of 4 ml were collected and assayed for DFF activity. The active fractions from the gel filtration column were pooled and loaded onto a MonoS 10/10 column (Pharmacia) equilibrated with buffer A. The column was washed with 50 ml of buffer A and eluted with a 200 ml 0-0.2 M linear NaCl gradient. […]
DFF activity eluted from a Mono Q column, the last step of the purification, at about 250 mM NaCl. […] No other proteins were detected in fraction containing the peak of DFF activity.

In the case of caspase-3 (active recombinant), the “cleavage of the fusion protein (SDS-PAGE)” value in data set [1] is “Incubation of this fusion protein with caspase-3 resulted in its cleavage into three fragments of 30 kDa, 18 kDa and 11 kDa at the early time point”. Also, in data set [2], the “rate of cleavage in isolated nuclei (immunoblot)” value is on record as “The same conclusion was obtained when the rate of cleavage of PARP was measured”. In addition, in the data set on lamin B1, the “time course of cleavage in isolated nuclei (immunoblot)” value is listed as “the rate of lamin B1 cleavage by caspase-3 remained the same with or without DFF”. Besides, the “cleavage of biotinylated DFF (SDS-PAGE, streptavidin-peroxidase chemiluminescence)” value was “Incubation with caspase-3 resulted in the cleavage of the 45-kDa subunit into fragments of molecular masses of 30 kDa and 11 kDa” in data set [3]; “the 40-kDa subunit remained intact” in data set [4].

On to histone H1, for which, in data set [5], the DNase activity of A-DFF40 on purified plasmid DNA is above 10 fold.

B1: DFF45 (45-kDa subunit of DNA fragmentation factor), native human protein (other)
chain: MEVTGDAGVPESGEIRTLKPCLLRRNYSREQHGVAASCLEDLRSKACDILAIDKSLTPVTLVLAEDGTIVDDDDYFLCLPSNTKFVALASNEKWAYNNSDGGTAWISQESFDVDETDSGAGLKWKNVARELKEDLSSIILLSEEDLQMLVDAPCSDLAQELRQSCATVQRLQHTLQQVLDQREEVRQSKQLLQLYLQALEKEGSLLSKQEESKAAFGEEVDAVDTGMSRETSSDVALASHILTALREKQAPELSLSSQDLELVTKEDPKALAVALNWDIKKTETVQEACERELALRLQQTQSLHSLRSISASKASPPGDLQNPKRARQDPT
notes: Native protein, purified from HeLa S-100 as part of the DFF heterodimer, or endogenous in 293 and U937 cell extracts; also called 45-kDa polypeptide; endogenous protein
Take B1: the binding result in data set [6] was “binds”.
